Measured values from publication PMC2865030.

Key:
Test in all cases: ITC
[1] = molecular target: C-terminal domain of yeast Hsp90 (yeast)
[2] = molecular target: yeast Hsp90 (wild type, His-tagged) (yeast) (UniProt P02829)
[3] = molecular target: yeast Hsp90 M705V (His-tagged) (yeast) (UniProt P02829)

- Kd [1]: 320 nM
- stoichiometry N [1]: 0.93
- Kd [2]: 780 nM
- stoichiometry N [2]: 1.1
- Kd [3]: 13000 nM
- stoichiometry N [3]: 0.83
B1: Tah1 (TPR-containing protein associated with Hsp90) (natural protein)
chain: MSQFEKQKEQGNSLFKQGLYREAVHCYDQLITAQPQNPVGYSNKAMALIKLGEYTQAIQMCQQGLRYTSTAEHVAIRSKLQYRLELAQGAVGSVQIPVVEVDELPEGYDRS
